The term Kd denotes a measure of binding affinity in units of concentration. One may read the koff as a measure of how fast the partners let go of each other. As usually defined, the kon is the rate constant with which the complex forms.

Data on three molecules can be found in patent publication EP4707298A2 (INSTITUTO BUTANTAN, dated 2026).

Assay [1] has as its target rFGF2 antigen (recombinant fibroblast growth factor 2) (UniProt P09038). As to the kind of experiment: SPR kinetic affinity assay.
The target of assay [2] is T1, rFGF2 antigen (recombinant fibroblast growth factor 2) (UniProt P09038 143-288, limits assumed).
T1 construct: also called FGF2 protein
Nature of the assay: SPR kinetic affinity assay.

T1 sequence (P09038 143-288 limits assumed): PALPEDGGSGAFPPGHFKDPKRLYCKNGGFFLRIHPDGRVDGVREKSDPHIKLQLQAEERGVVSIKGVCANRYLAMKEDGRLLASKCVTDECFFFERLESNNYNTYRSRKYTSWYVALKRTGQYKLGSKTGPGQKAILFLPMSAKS
Sequence of rFGF2 antigen (recombinant fibroblast growth factor 2) (UniProt P09038) (P09038 143-288 limits assumed): as above

B1: human anti-FGF2 antibody 32L98H (antibody, part only; not given: light chain 32L, human IgG1, V domains shown, part only)
VH: QITLKESGPTLVKPTQTLTLTCTFSGFSLSTSGVGVGWIRQPPGEALEWLAVIHWNEANYYSPYLRSRLTITKDTSKNQMVLTVTNMDPVDTATYYCARGANSDSSGRLDAFDIWGQGTMVTVSS
For the molecule B1, in assay [1], the Kd stood at 8.53 nM, the koff worked out at 0.00326 s⁻¹ and the kon turned out to be 382000 M⁻¹ s⁻¹.

B2: human anti-FGF2 antibody 62K98H (antibody, human IgG1, V domains shown)
VH: QITLKESGPTLVKPTQTLTLTCTFSGFSLSTSGVGVGWIRQPPGEALEWLAVIHWNEANYYSPYLRSRLTITKDTSKNQMVLTVTNMDPVDTATYYCARGANSDSSGRLDAFDIWGQGTMVTVSS
VL: DVVMTQSPLSLPVTLGQPASISCRSSQSLIYSDGNTRLYWFHQRPGQSPRRLIYGVSNRDSGVPDRFSGSGSGTDFTLKISRVEAEDVGVYYCMQSTHWPHTFGQGTKLEIK
notes: Human IgG1 format (AbVec vectors with human gamma1 HC and kappa LC constant regions)
As to B2, in assay [2], the Kd is 9.1 nM, the koff was 0.00156 s⁻¹ and the kon worked out at 171000 M⁻¹ s⁻¹.

B3: human anti-FGF2 antibody 85L117H (antibody, human IgG1, V domains shown)
VH: QVQLVQSGAELKRPGSSVKVSCRASGDTFKNYAITWVRQAPGQGLEWVGGIDPLVGVPNYTHRFQGRVTITADEPTSTTYMEFRDLTSDDTAVYYCARGVRDQHWSYFDSWGQGTLVTVSS
VL: QSVLTQPPSASGTPGQTVNISCSGATSNIGGGSVNWYQQLPGAAPRLLIHSDNERASGVPDRFSGSKSGTSASLAISGLQSEDEADYFCASWDDSLDGHVVFGGGTKVTVL
notes: Human IgG1 format (AbVec vectors with human gamma1 HC and lambda LC constant regions)
In the case of B3, in assay [2], the Kd came to 17 nM, the koff is 0.000834 s⁻¹ and the kon was found to be 49200 M⁻¹ s⁻¹.
